The target of experiment [1] is streptolysin O (Streptococcus pyogenes (group A Streptococcus), strain 854) (UniProt P0C0I3). In words: BLI; […] (Octet RED384), […]; 20 mM Tris, 300 mM NaCl, 0.01% Tween 20, 1 mM DTT, pH 7.4; 30°C; […].
Experiment [2] shares this target. In words: […], room temperature; […], pH 7.4; […].
For experiment [3] the target is unchanged. In words: […]; PBS, 1 mM DTT, pH 7.4; room temperature.

In experiment [1], “190NADase, C-terminal glycohydrolase (catalytic) domain of NADase (domain or fragment)” registered a Kd of 20.7 µM. This lies in the double-digit micromolar range.
Take “NAD+-glycohydrolase, full-length (enzyme)”: the stoichiometry N in experiment [2] and in experiment [3] was 1 throughout. In addition, the dissociation constant Kd in experiment [1] stood at 2.58 µM.

(Values after PMC5596348.)
